These results are taken from the supplement of paper PMC12042874.

± gives the uncertainty stated by the source.

A short description of this series: amyloid nucleation score (Sup35N fusion, yeast selection) (log enrichment); library NNK3; higher = more nucleation; inactive = no reads after selection. The method, boiled down:
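Sup35N fusions to peptides of 20 random codons were expressed in psi-negative yeast, induced 24 hours with 100 μM copper sulfate, and grown 7 days at 30°C on medium lacking adenine and uracil. Input and output plasmid inserts were sequenced by Illumina. The nucleation score is the DiMSum log enrichment of output over input reads, centred on the mode score of non-aggregating sequences. Sequences with under 100 input reads were excluded.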
As to NGMGKRGQRSEESISQRSTG, the amyloid nucleation score entry was “inactive”.

Consider FRRYRRCDLGLLSSMRPSAH, for which the amyloid nucleation score result was “inactive”.

With PRPSYWHRYSWSTTIVGGIS, the amyloid nucleation score result was “inactive”. Turning to LLCMWFCKSRLPRCSKCCSR, the amyloid nucleation score entry is “inactive”. In the case of QALYDWILWNHWTTKVGPVA, the amyloid nucleation score result is “inactive”.

Take FMGTRTKLMALVYQEELSRS: the amyloid nucleation score result was “inactive”. On to AVTFTHRFSRISPCHRRRWK, for which the amyloid nucleation score was determined as 1.16 ± 0.1. As for WDFFIGLLLYSIL, the amyloid nucleation score result was “inactive”. With RLSAPCCWYNTLIE, the amyloid nucleation score amounted to 1.96 ± 0.099.

On to ILYLRVYITFVLIGNLEGFR, for which the amyloid nucleation score result is “inactive”.

For the substance AIEQSLDWF, the amyloid nucleation score entry was “inactive”. CCQLGESTENGLFSDDWRCE: the amyloid nucleation score result was “inactive”.

Take VEDLMF: the amyloid nucleation score entry was “inactive”. Turning to KNGIITLSSIT, the amyloid nucleation score entry is “inactive”. In turn, RNTGKAVHFCNRVYDSSMSM returned an amyloid nucleation score of -0.1 ± 0.6. On to RCELCMSIKGLAVNNIR, for which the amyloid nucleation score came to 1.9 ± 0.1.

In the case of IISSSL, the amyloid nucleation score result is “inactive”. On to RGGRTSVLLNRSMLVEK, for which the amyloid nucleation score result was “inactive”.

For LTSSEQDAITLTTCGISECA, the amyloid nucleation score entry was “inactive”. IALSVDYLRFIFKNHSA came in with an amyloid nucleation score of -0.464 ± 0.66. Regarding TFLVALSYFVSLGYGSSQSM, the amyloid nucleation score entry was “inactive”.

Turning to DGRCKMLPVESGGAC, the amyloid nucleation score entry is “inactive”. Consider VHYWCGTQVVA, for which the amyloid nucleation score entry was “inactive”. For RLVFNLGGYFLKWCIDCFIR, the amyloid nucleation score entry was “inactive”.

HSCFCQCVSARYCDYSSVTR: the amyloid nucleation score result is “inactive”. On to YTALL, for which the amyloid nucleation score entry is “inactive”. Take VIVTVVSPTSMRNGDTRMQI: the amyloid nucleation score entry is “inactive”.

For the substance RMYRGWLVPDAARSKGCRVM, the amyloid nucleation score entry is “inactive”. In the case of FWGFPRKSYADMMGSTRGSA, the amyloid nucleation score entry is “inactive”. Take RAGVKNG: the amyloid nucleation score entry was “inactive”.

SNVSVHGMIESMLWLSTRDI: the amyloid nucleation score result is “inactive”. The same measure for VVYTGTNGRLQDRA: “inactive”.

Consider LWYGKYFFIDKRQA, for which the amyloid nucleation score came out at 0.359 ± 0.23.

For VGRHAYRC, the amyloid nucleation score entry is “inactive”. Turning to YRKWGCWHRTFRLIYCTVVL, the amyloid nucleation score entry was “inactive”. For the substance TRSFCVSK, the amyloid nucleation score result is “inactive”. The same measure for ITMCIIHHRHLMATSFM: 0.752 ± 0.18; for YSSFAANSCFLERVEVKSDL: “inactive”. The same measure for VSAAYLRTVRQ: “inactive”. For GVMVPTALLISNPSRRFHWL, the amyloid nucleation score entry is “inactive”. As for LLPDRFANPGETWVLNYKLM, the amyloid nucleation score entry is “inactive”.

Regarding EVGLRSLMFHSGQGIRMYNY, the amyloid nucleation score entry was “inactive”.

As to KESVYPTWHMRWFVYCELVL, the amyloid nucleation score entry is “inactive”. Consider EKSCCCSVKI, for which the amyloid nucleation score result was “inactive”. On to DGNLPPNWLKGACTFRWTFI, for which the amyloid nucleation score entry was “inactive”. The same measure for SRQPRCALVVDVPP: “inactive”; for LIYANEYA: “inactive”.

Regarding RLRSNDSDLNRIAAIKVRGI, the amyloid nucleation score entry is “inactive”. For the substance SSQFTHEETGFCDVVPVVCG, the amyloid nucleation score result was “inactive”.

In the case of NTLKSV, the amyloid nucleation score entry is “inactive”. Consider FIITPTYIICQRLFY, for which the amyloid nucleation score entry was “inactive”. Substance PSSSDGSMHLYIILQTLLFF had an amyloid nucleation score of 1.49 ± 0.11.

KRFTGSK: the amyloid nucleation score entry is “inactive”. The same measure for LVTFCYLDGSILNGEALRG: “inactive”; for FWSSFAMRAYSVIWYTLSTC: “inactive”. The same measure for LKPQHSSGGSLSRMIYRPFL: 2.18 ± 0.088; for ETVGAPRSLYYST: “inactive”; for PMKGSSMSTPTANIRQ: -0.135 ± 1.1. VTVSYIVNGMTSLFQVDVAS: the amyloid nucleation score entry was “inactive”. YREVYLNRRLERL: the amyloid nucleation score result is “inactive”.

As for GFLESCENLVQFKRARWSNI, the amyloid nucleation score result was “inactive”. Take YSNLLAYWIQISKWIATGRC: the amyloid nucleation score result was “inactive”. As to TFHSM, the amyloid nucleation score result was “inactive”.

As for ILVLTKRVCYGSLFRYAWAK, the amyloid nucleation score entry is “inactive”. The same measure for TLHCSVYMCTTYGNTHLYVH: 2.2 ± 0.063. For the substance QFSRWI, the amyloid nucleation score result is “inactive”. The same measure for MIYGNWHIWFDVTAVKYEVG: “inactive”; for ESGNS: “inactive”. With SLLGSRNRRSGWTQFVKLVW, the amyloid nucleation score entry is “inactive”.

IVIYLSHDKNLIQVRSSCEG yielded an amyloid nucleation score of 2.59 ± 0.056.

On to ARIDCGSVELKECDLRPDYG, for which the amyloid nucleation score result was “inactive”. The same measure for FYNRPKWLFVLGPENILCDS: “inactive”; for IGMMYVIGIYLIGGNYSIR: “inactive”; for CIVRIVQST: “inactive”.

CVYFGRVNFTVGLLPSLNGF: the amyloid nucleation score is 1.46 ± 0.14. As to MWWAINCWSSKFHIYSIDTY, the amyloid nucleation score result is “inactive”. Turning to SDGFLSADYRFFMMLRYRLE, the amyloid nucleation score entry was “inactive”.

The substance KFLYGGFCGWMSAVLNVLYP returned an amyloid nucleation score of -0.364 ± 0.82. In the case of YTNALPAITFVVIGHLAIQ, the amyloid nucleation score was 2.64 ± 0.068.

FGLVRTNRDILH: the amyloid nucleation score result was “inactive”.

With YWNIFGVVSN, the amyloid nucleation score result is “inactive”.

Regarding RQFCSQLICSIMVYVCLCGI, the amyloid nucleation score result was “inactive”. As to GNVSCHFILGQRVHFPSCDF, the amyloid nucleation score came out at 0.809 ± 0.29. NYLGVTYCSYSS: the amyloid nucleation score result was “inactive”.

Turning to WYRFPCFFLYCDAWMILNFA, the amyloid nucleation score entry was “inactive”.

For the substance TFEEFESTARLGFHERGDFY, the amyloid nucleation score entry was “inactive”. In the case of RYNRA, the amyloid nucleation score result is “inactive”. As for DLNIVIPRIRAHRA, the amyloid nucleation score entry was “inactive”. Regarding LSKHEAGTCRLVNDRTHYKA, the amyloid nucleation score entry was “inactive”.

Regarding AGQFPREQ, the amyloid nucleation score entry was “inactive”. On to NWCILTLNGVSGRIRLPCWS, for which the amyloid nucleation score turned out to be 0.405 ± 0.19. NSYIFVQALMTFGDLTWAFH: the amyloid nucleation score was 2.34 ± 0.073.

Regarding LVVVR, the amyloid nucleation score result was “inactive”.

For the substance LEESFSKNLSKSFYIQ, the amyloid nucleation score entry was “inactive”. For MEINAVPD, the amyloid nucleation score entry was “inactive”. With VCVRKLELGDCLKCG, the amyloid nucleation score result is “inactive”. In turn, TTTCHLRIKSNMRLSQEWLG came in with an amyloid nucleation score of 1.17 ± 0.12. The same measure for ILHHTWYMF: “inactive”; for WVFNGARKGM: “inactive”. Consider PDRLFLDTGSTWFKYMMSCL, for which the amyloid nucleation score is -1.12 ± 1.4.

Consider PLPYANKNNCFGNSSLRATI, for which the amyloid nucleation score entry was “inactive”. The same measure for SCRFRVLRVFLGQTMYSSSI: “inactive”; for IDLFRSFSLAVLVVYMSEDW: “inactive”; for LDGQFNNLYMYPSFYQEVAG: “inactive”. RPFGLAVTRWAPSFAGSRTS: the amyloid nucleation score result was “inactive”. The same measure for PNPLRLNNIRRVLARKSKVS: “inactive”; for IHRNNNFFRRGYVWSYEEHH: “inactive”. With NLLVLTDSVYIPLSHPYPNR, the amyloid nucleation score was determined as 0.493 ± 0.22. Take DGHGRRHSRVQIRGIVACSD: the amyloid nucleation score entry was “inactive”. As to LNCLRMSLLC, the amyloid nucleation score result is “inactive”. Take KAVVLGEWTRSFCSLDFNI: the amyloid nucleation score result was “inactive”.

For the substance YAFIL, the amyloid nucleation score result is “inactive”. The same measure for SGFYSLIVYNGFERALFVGS: “inactive”; for SVRLTIEMVTAVFRWGESMR: 0.233 ± 0.32. In turn, EGFYTFALGRICGFWSYNFC returned an amyloid nucleation score of 1.23 ± 0.14.

Consider VIILMVIVLYNRVSFETFSV, for which the amyloid nucleation score result was “inactive”. The same measure for RAIGLGAFGIRRGGTRKWNE: -1.06 ± 2.5.

In the case of VSGQKVSCMDE, the amyloid nucleation score entry was “inactive”. For the substance ELLGGLSLLGMSIFVLLSSL, the amyloid nucleation score result is “inactive”. Regarding ISDLTHFRYRDVPNLLVRTK, the amyloid nucleation score entry was “inactive”.

For the substance FWMILMDMLFMRLGSL, the amyloid nucleation score result is “inactive”. The same measure for FDTYTLSNTF: “inactive”; for WGWGCLCMWYICYSCVYRDR: 0.708 ± 0.28.

Turning to LGIGVKYSTGWCFVIMSSAM, the amyloid nucleation score result was “inactive”.

Turning to SIDLNGKG, the amyloid nucleation score result was “inactive”. Substance NCLSPTCRSVL showed an amyloid nucleation score of 2.07 ± 0.097. For HDLAGQFISV, the amyloid nucleation score entry is “inactive”. The same measure for RYLYTRNLDMTRTL: “inactive”; for RLMYKMMHVSGDEECLFVMV: “inactive”; for IEGSYIDMFLYSYLMSGSLI: “inactive”.

On to CDSWAYCRGCFRFML, for which the amyloid nucleation score was -0.092 ± 1.1. As to KDCMVYWLRI, the amyloid nucleation score result was “inactive”.
